In doi:10.1101/2023.09.28.559889 (bioRxiv, 2023):

B1: NatT toxin (PA1030), His-tagged, co-expressed with NatR in E. coli (enzyme)
chain: SEIWRQCKGERHIRPLQGRLVRLVESQEQVATLQLVDTLEEQALLEELLESSKPPVPADAEPLHYLLKTPFRYPPLRWGSRFGRRHEPSLFYAALKLETAMAESAYYRCVLWSGMVVPPPSGRILSEHASFEAGWKVERGIRLQAPPFSDHEAALTDIADYRAPQELGSAMRSAGVQAFEYRSARCPERGCNVALFTPAAFTEKRPRNLTPWLCETTAGYVAFKPAHVPGSPKIFSWELFLVDGKLPHPA

How the values were obtained:
[1] = target: NatR antitoxin (PA1029), co-expressed with His-tagged NatT in E. coli (P. aeruginosa); test: crystal structure
[2] = target: NatT toxin (PA1030), His-tagged, co-expressed with NatR in E. coli (P. aeruginosa) (UniProt Q9I4U4); test: mass photometry
[3] = target: the molecule itself; test: crystal structure

| Molecule | stoichiometry N [1] | stoichiometry N [2] | stoichiometry N [3] |
| --- | --- | --- | --- |
| NatR antitoxin (PA1029), co-expressed with His-tagged NatT in E. coli (natural protein) | 2 | 2 |  |
| B1 |  |  | 2 |
